Test results as given in article PMC4831024.

Tests used:
Ku (Homo sapiens) = Ku (Homo sapiens) (UniProt P12956); conditions: cited from earlier work
[1] = molecular target: GFP–WRN ΔX (deleted XLF-like motif) (human) (UniProt Q14191); experiment: co-IP; GFP-tagged proteins recovered on GFP-TRAP beads from transfected HEK293T extract (25 mM Tris-HCl pH 7.5, 150 mM NaCl, 10% glycerol, 0.5% Triton X-100, 1 mM DTT), 1 h at 4 °C; immunoblot for GFP, Ku80 and DNA–PKcs; Ku quantified by ImageJ relative to wild-type WRN
Sequence of GFP–WRN ΔX (deleted XLF-like motif) (human) (Q14191 whole entry, stated change not applied): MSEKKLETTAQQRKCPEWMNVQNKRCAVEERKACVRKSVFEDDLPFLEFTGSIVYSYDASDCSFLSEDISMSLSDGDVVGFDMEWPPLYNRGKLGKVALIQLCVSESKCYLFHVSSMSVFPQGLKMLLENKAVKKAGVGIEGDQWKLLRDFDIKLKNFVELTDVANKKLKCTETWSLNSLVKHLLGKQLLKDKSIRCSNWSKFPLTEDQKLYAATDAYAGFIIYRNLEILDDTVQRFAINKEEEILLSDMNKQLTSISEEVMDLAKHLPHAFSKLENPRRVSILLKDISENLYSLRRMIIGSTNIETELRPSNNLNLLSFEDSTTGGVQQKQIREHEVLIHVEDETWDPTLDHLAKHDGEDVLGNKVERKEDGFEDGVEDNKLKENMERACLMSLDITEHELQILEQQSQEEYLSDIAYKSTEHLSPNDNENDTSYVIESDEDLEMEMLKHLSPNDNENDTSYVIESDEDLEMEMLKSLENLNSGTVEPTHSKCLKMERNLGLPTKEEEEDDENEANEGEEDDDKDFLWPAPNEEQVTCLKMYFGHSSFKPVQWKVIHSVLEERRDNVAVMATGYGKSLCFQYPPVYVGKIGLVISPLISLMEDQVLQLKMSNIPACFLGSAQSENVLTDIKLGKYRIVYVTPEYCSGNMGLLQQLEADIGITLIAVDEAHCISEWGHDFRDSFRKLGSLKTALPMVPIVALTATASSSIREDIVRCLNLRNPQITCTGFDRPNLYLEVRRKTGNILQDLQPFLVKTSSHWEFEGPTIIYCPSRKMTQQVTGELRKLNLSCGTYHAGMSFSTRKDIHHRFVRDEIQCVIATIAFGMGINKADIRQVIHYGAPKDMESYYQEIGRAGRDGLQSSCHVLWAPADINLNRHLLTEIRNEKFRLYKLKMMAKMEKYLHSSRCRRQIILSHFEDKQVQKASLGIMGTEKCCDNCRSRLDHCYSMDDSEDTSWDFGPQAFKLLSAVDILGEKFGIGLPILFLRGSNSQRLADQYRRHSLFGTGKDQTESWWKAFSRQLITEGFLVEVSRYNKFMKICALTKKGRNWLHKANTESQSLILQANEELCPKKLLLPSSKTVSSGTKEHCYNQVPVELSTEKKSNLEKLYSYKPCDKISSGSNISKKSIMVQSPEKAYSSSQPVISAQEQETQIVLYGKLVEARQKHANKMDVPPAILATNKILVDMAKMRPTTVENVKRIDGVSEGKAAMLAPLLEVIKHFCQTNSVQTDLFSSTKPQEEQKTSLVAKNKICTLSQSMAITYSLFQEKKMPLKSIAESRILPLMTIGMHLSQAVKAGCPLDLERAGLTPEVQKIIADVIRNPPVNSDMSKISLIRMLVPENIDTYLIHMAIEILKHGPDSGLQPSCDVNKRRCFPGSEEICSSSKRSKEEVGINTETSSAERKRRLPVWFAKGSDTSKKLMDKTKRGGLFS

Sequence of Ku (Homo sapiens) (P12956 2-609, chain 1 of 2): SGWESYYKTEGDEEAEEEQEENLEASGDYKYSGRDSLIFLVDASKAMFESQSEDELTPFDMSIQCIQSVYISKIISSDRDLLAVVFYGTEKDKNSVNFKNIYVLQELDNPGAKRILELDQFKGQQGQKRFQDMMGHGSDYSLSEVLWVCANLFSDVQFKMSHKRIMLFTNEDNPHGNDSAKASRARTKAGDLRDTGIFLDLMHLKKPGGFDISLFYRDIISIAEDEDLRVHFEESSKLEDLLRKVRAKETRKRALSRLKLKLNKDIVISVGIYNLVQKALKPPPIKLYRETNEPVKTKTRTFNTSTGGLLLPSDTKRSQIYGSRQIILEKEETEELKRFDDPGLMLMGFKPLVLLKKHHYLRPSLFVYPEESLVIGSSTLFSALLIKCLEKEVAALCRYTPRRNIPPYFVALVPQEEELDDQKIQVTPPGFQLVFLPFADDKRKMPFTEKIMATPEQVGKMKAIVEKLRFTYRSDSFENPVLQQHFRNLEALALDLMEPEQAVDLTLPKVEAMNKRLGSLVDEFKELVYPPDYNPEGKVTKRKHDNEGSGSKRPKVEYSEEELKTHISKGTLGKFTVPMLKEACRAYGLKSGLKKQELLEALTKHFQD
Sequence of Ku (Homo sapiens) (P13010 2-732, chain 2 of 2, further chain): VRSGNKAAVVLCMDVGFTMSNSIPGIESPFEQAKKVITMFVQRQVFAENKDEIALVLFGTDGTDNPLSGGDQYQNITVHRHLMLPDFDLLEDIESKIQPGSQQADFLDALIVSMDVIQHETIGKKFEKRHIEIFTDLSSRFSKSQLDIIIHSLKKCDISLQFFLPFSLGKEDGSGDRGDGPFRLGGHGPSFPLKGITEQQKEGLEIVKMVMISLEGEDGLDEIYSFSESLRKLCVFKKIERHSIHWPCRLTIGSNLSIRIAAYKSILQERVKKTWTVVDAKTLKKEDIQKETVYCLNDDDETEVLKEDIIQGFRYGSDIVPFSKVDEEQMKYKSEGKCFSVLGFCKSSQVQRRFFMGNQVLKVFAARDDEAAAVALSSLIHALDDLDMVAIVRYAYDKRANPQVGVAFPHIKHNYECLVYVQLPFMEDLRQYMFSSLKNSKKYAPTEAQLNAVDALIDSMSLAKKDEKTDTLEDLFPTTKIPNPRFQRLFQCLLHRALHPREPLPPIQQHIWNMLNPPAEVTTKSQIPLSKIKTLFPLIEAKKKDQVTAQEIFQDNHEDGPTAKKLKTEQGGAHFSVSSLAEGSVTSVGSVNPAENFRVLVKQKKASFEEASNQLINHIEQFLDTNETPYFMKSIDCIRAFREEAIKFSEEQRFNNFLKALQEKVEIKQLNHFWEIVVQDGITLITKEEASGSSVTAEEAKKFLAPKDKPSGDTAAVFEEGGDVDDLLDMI
Sequence of Ku80, endogenous (P13010 whole entry): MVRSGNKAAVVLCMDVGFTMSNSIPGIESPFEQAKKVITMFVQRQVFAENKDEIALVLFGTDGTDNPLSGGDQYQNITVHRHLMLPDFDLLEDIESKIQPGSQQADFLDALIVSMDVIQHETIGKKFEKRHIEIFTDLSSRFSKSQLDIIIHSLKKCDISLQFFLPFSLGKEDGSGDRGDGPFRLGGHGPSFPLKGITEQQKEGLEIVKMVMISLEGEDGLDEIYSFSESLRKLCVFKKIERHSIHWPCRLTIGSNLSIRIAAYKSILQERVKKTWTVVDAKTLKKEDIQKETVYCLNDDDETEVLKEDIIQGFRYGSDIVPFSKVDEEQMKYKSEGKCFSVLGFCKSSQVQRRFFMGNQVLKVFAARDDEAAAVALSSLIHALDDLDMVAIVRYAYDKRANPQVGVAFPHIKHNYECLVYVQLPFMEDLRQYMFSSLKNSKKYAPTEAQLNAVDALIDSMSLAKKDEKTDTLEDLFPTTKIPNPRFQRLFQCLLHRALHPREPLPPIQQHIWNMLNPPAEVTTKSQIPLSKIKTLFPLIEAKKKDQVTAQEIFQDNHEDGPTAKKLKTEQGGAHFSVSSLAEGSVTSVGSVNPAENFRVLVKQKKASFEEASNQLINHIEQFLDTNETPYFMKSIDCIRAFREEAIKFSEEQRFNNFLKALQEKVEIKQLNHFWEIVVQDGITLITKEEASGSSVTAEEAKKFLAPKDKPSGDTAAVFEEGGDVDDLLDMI

percent reduction of Ku co-precipitated, relative to wild-type GFP-WRN [1]	Substance	Kd (Ku (Homo sapiens))
	APLF KBM (from UniProt Q8IW19)	600 nM
30%	Ku80, endogenous (from UniProt P13010 1-732) (natural protein)	
